Experimental data taken from patent US20230256114A1, “NOVEL MAYTANSINOIDS AS ADC PAYLOADS AND THEIR USE FOR THE TREATMENT OF CANCER” (priority 2020, published 2023).

Target: T1, Trophoblast cell-surface antigen-2 (Trop-2) (human, UniProt P09758 27-323)
T1 sequence (looked up): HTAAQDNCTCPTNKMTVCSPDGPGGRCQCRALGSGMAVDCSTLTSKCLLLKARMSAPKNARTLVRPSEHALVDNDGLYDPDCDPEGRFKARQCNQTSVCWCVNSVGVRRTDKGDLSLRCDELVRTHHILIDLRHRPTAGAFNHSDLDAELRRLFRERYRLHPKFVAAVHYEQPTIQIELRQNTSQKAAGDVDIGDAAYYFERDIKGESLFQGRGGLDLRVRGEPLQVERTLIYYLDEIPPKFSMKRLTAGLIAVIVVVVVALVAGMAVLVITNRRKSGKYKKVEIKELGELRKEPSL
Assay: cell-based or functional assay

B1: Anti-Trop-2-Vc-MMAE (antibody, V domains shown)
VH: SALMSRLTISKDTSKNQFSLKLSSVTAADTAVYYCARDENWDGAWFAYWGQGTLVTVSS
VL: DIVMTQSPDSLAVSLGERATINCKSSQSLLNSGTRKNYLAWYQQKPGQPPKLLISWASSRESGVPDRFSGSGSGTDFTLTISSLQAEDVAVYYCKQSYNLFTFGGGTKVEIKR
modifications: vc-MMAE drug-linker; conjugation site not stated; DAR 4
- IC50 (nM), in vitro cytotoxicity (CCK-8, 72 h), BxPC-3 cells (TROP2 +++), ADC at DAR 4: 0.51 nM
- IC50 (nM), in vitro cytotoxicity (CCK-8, 72 h), Colo205 cells (TROP2 +), ADC at DAR 4: 0.68 nM
- IC50 (nM), in vitro cytotoxicity (CCK-8, 72 h), MDA-MB-468 cells (TROP2 ++), ADC at DAR 4: 0.54 nM
- IC50 (nM), in vitro cytotoxicity (CCK-8, 72 h), NCI-N87 cells (TROP2 ++/+), ADC at DAR 4: 0.49 nM

B2: Anti-Trop-2-BI-P209 (antibody, V domains shown)
VH: SALMSRLTISKDTSKNQFSLKLSSVTAADTAVYYCARDENWDGAWFAYWGQGTLVTVSS
VL: DIVMTQSPDSLAVSLGERATINCKSSQSLLNSGTRKNYLAWYQQKPGQPPKLLISWASSRESGVPDRFSGSGSGTDFTLTISSLQAEDVAVYYCKQSYNLFTFGGGTKVEIKR
modifications: BI-P209 maytansinoid drug-linker on cysteines; positions not given; DAR 6.2
- IC50 (nM), in vitro cytotoxicity (CCK-8, 72 h), Colo205 cells (TROP2 +), ADC at DAR 6.2: > 500 nM
- IC50 (nM), in vitro cytotoxicity (CCK-8, 72 h), MDA-MB-468 cells (TROP2 ++), ADC at DAR 6.2: 5.37 nM

B3: Anti-Trop-2-BI-P208 (antibody, V domains shown)
VH: SALMSRLTISKDTSKNQFSLKLSSVTAADTAVYYCARDENWDGAWFAYWGQGTLVTVSS
VL: DIVMTQSPDSLAVSLGERATINCKSSQSLLNSGTRKNYLAWYQQKPGQPPKLLISWASSRESGVPDRFSGSGSGTDFTLTISSLQAEDVAVYYCKQSYNLFTFGGGTKVEIKR
modifications: BI-P208 maytansinoid drug-linker on cysteines; positions not given; DAR 3.0 or 4.3
- IC50 (nM), in vitro cytotoxicity (CCK-8, 72 h), BxPC-3 cells (TROP2 +++), ADC at DAR 3.0: 0.67 nM
- IC50 (nM), in vitro cytotoxicity (CCK-8, 72 h), MDA-MB-468 cells (TROP2 ++), ADC at DAR 4.3: 2.22 nM
- IC50 (nM), in vitro cytotoxicity (CCK-8, 72 h), NCI-N87 cells (TROP2 ++/+), ADC at DAR 3.0: 6.43 nM

B4: Anti-Trop-2-BI-P207 (antibody, V domains shown)
VH: SALMSRLTISKDTSKNQFSLKLSSVTAADTAVYYCARDENWDGAWFAYWGQGTLVTVSS
VL: DIVMTQSPDSLAVSLGERATINCKSSQSLLNSGTRKNYLAWYQQKPGQPPKLLISWASSRESGVPDRFSGSGSGTDFTLTISSLQAEDVAVYYCKQSYNLFTFGGGTKVEIKR
modifications: BI-P207 maytansinoid drug-linker on cysteines; positions not given; DAR 3.4 or 4.5
- IC50 (nM), in vitro cytotoxicity (CCK-8, 72 h), BxPC-3 cells (TROP2 +++), ADC at DAR 3.4: 2.09 nM
- IC50 (nM), in vitro cytotoxicity (CCK-8, 72 h), MDA-MB-468 cells (TROP2 ++), ADC at DAR 4.5: 4.29 nM
- IC50 (nM), in vitro cytotoxicity (CCK-8, 72 h), NCI-N87 cells (TROP2 ++/+), ADC at DAR 3.4: 33.8 nM

B5: Anti-Trop-2-BI-P206 (antibody, V domains shown)
VH: SALMSRLTISKDTSKNQFSLKLSSVTAADTAVYYCARDENWDGAWFAYWGQGTLVTVSS
VL: DIVMTQSPDSLAVSLGERATINCKSSQSLLNSGTRKNYLAWYQQKPGQPPKLLISWASSRESGVPDRFSGSGSGTDFTLTISSLQAEDVAVYYCKQSYNLFTFGGGTKVEIKR
modifications: BI-P206 maytansinoid drug-linker on cysteines; positions not given; DAR 3.6 or 4.5
- IC50 (nM), in vitro cytotoxicity (CCK-8, 72 h), BxPC-3 cells (TROP2 +++), ADC at DAR 3.6: 0.99 nM
- IC50 (nM), in vitro cytotoxicity (CCK-8, 72 h), MDA-MB-468 cells (TROP2 ++), ADC at DAR 4.5: 2.66 nM
- IC50 (nM), in vitro cytotoxicity (CCK-8, 72 h), NCI-N87 cells (TROP2 ++/+), ADC at DAR 3.6: 125 nM

B6: Anti-Trop-2-BI-P204 (antibody, V domains shown)
VH: SALMSRLTISKDTSKNQFSLKLSSVTAADTAVYYCARDENWDGAWFAYWGQGTLVTVSS
VL: DIVMTQSPDSLAVSLGERATINCKSSQSLLNSGTRKNYLAWYQQKPGQPPKLLISWASSRESGVPDRFSGSGSGTDFTLTISSLQAEDVAVYYCKQSYNLFTFGGGTKVEIKR
modifications: BI-P204 maytansinoid drug-linker on cysteines; positions not given; DAR 2.8 or 3.9
- IC50 (nM), in vitro cytotoxicity (CCK-8, 72 h), BxPC-3 cells (TROP2 +++), ADC at DAR 2.8: 0.38 nM
- IC50 (nM), in vitro cytotoxicity (CCK-8, 72 h), MDA-MB-468 cells (TROP2 ++), ADC at DAR 3.9: 1.81 nM
- IC50 (nM), in vitro cytotoxicity (CCK-8, 72 h), NCI-N87 cells (TROP2 ++/+), ADC at DAR 2.8: 17.6 nM

B7: Anti-Trop-2-SMCC-DM1 (antibody, V domains shown)
VH: SALMSRLTISKDTSKNQFSLKLSSVTAADTAVYYCARDENWDGAWFAYWGQGTLVTVSS
VL: DIVMTQSPDSLAVSLGERATINCKSSQSLLNSGTRKNYLAWYQQKPGQPPKLLISWASSRESGVPDRFSGSGSGTDFTLTISSLQAEDVAVYYCKQSYNLFTFGGGTKVEIKR
modifications: SMCC-DM1 on lysines; positions not given; DAR 4
- IC50 (nM), in vitro cytotoxicity (CCK-8, 72 h), BxPC-3 cells (TROP2 +++), ADC at DAR 4: 1.01 nM
- IC50 (nM), in vitro cytotoxicity (CCK-8, 72 h), Colo205 cells (TROP2 +), ADC at DAR 4: 56.4 nM
- IC50 (nM), in vitro cytotoxicity (CCK-8, 72 h), MDA-MB-468 cells (TROP2 ++), ADC at DAR 4: 4.88 nM
- IC50 (nM), in vitro cytotoxicity (CCK-8, 72 h), NCI-N87 cells (TROP2 ++/+), ADC at DAR 4: 2.88 nM
